This note sets out measurements from patent US11833164B2, “Methods of treating Fabry disease in patients having a mutation in the GLA gene” (Amicus Therapeutics, Inc., priority 2019, dated 2023).

This assay concerns mutant form of α-Gal A expressed in HEK-293 cells. In words: HEK assay (GLP HEK / Migalastat Amenability Assay): α-Gal A activity in lysates of transiently transfected HEK-293 cells incubated with or without 10 μM migalastat. The class given is cell-based, human. To be noted: for Absolute increase (% WT): 10 μM migalastat versus baseline; for Relative increase: 10 μM migalastat α-Gal A activity relative to baseline; for 10 μM migalastat α-Gal A activity (% WT): 5 days; for 10 μM migalastat α-Gal A activity (% WT) / Baseline α-Gal A activity (% WT): percentage of baseline wild-type α-Gal A activity; for 10 μM migalastat α-Gal A activity (% WT) / Baseline α-Gal A activity (% WT) / Baseline α-Gal A activity / 10 μM migalastat α-Gal A activity: mean ± SEM; for Baseline α-Gal A activity (% WT): absence of migalastat; for Baseline α-Gal A activity / 10 μM migalastat α-Gal A activity: lysates of HEK-293 cells transfected with the mutant form; for Baseline α-Gal A activity: incubated 5 days in the absence of migalastat; for 10 μM migalastat α-Gal A activity: incubated 5 days with 10 μM migalastat. A digest of the protocol:
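Activity reported as 4-MU released (nmol/mg/hr), mean±SEM, from lysates of transiently transfected HEK-293 cells expressing mutant α-Gal A, cultured with or without 10 μM migalastat.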

Changes are numbered by the printed parent chain. Numbers in names are those of the source.

B1: D182V (protein)
chain: MQLRNPELHLGCALALRFLALVSWDIPGARALDNGLARTPTMGWLHWERFMCNLDCQEEPDSCISEKLFMEMAELMVSEGWKDAGYEYLCIDDCWMAPQRDSEGRLQADPQRFPHGIRQLANYVHSKGLKLGIYADVGNKTCAGFPGSFGYYDIDAQTFADWGVDLLKFDGCYCDSLENLAVGYKHMSLALNRTGRSIVYSCEWPLYMWPFQKPNYTEIRQYCNHWRNFADIDDSWKSIKSILDWTSFNQERIVDVAGPGGWNDPDMLVIGNFGLSWNQQVTQMALWAIMAAPLFMSNDLRHISPQAKALLQDKDVIAINQDPLGKQGYQLRQGDNFEVWERPLSGLAWAVAMINRQEIGGPRSYTIAVASLGKGVACNPACFITQLLPVKRKLGFYEWTSRLRSHINPTGTVLLQLENTMQMSLKDLL
Take B1: the “Absolute increase (% WT)” value is 44.7 % WT, the Relative increase was 1.6, the “10 μM migalastat α-Gal A activity (% WT)” value came out at 124.8 ± 6.9 % WT and the “Baseline α-Gal A activity (% WT)” value amounted to 80.2 ± 4.2 % WT. Besides, the “Baseline α-Gal A activity” value was found to be 26881 ± 2166 nmol/mg/h and the “10 μM migalastat α-Gal A activity” value turned out to be 42107 ± 3524 nmol/mg/h.

B2: Y184S (protein)
chain: B1 chain with V182D, Y184S
In the case of B2, the “Absolute increase (% WT)” value amounted to 25.2 % WT, the Relative increase stood at 2.7, the “10 μM migalastat α-Gal A activity (% WT)” value was 40.6 ± 1.6 % WT and the “Baseline α-Gal A activity (% WT)” value came to 15.4 ± 1 % WT. Besides, the “Baseline α-Gal A activity” value worked out at 5213 ± 371 nmol/mg/h and the “10 μM migalastat α-Gal A activity” value is 13965 ± 799 nmol/mg/h.

B3: H186Y (protein)
chain: B1 chain with V182D, H186Y
In the case of B3, the “Absolute increase (% WT)” value was found to be 39.8 % WT, the Relative increase is 1.4, the “10 μM migalastat α-Gal A activity (% WT)” value amounted to 123.6 ± 8.9 % WT and the “Baseline α-Gal A activity (% WT)” value is given as 83.8 ± 4.5 % WT. Also, the “Baseline α-Gal A activity” value stood at 37644 ± 2421 nmol/mg/h and the “10 μM migalastat α-Gal A activity” value was determined as 53613 ± 2581 nmol/mg/h.

B4: S188C (protein)
chain: B1 chain with V182D, S188C
Consider B4, for which the “Absolute increase (% WT)” value is 18.5 % WT, the Relative increase was 1.4, the “10 μM migalastat α-Gal A activity (% WT)” value is on record as 68.6 ± 4.3 % WT and the “Baseline α-Gal A activity (% WT)” value is 50.1 ± 3.7 % WT. Also, the “Baseline α-Gal A activity” value is 18465 ± 1552 nmol/mg/h and the “10 μM migalastat α-Gal A activity” value worked out at 25569 ± 2083 nmol/mg/h.

B5: K185M (protein)
chain: B1 chain with V182D, K185M
For the molecule B5, the “Absolute increase (% WT)” value is listed as 27.8 % WT, the Relative increase is 1.3, the “10 μM migalastat α-Gal A activity (% WT)” value stood at 102.9 ± 9 % WT and the “Baseline α-Gal A activity (% WT)” value is recorded as 75.1 ± 4.6 % WT. Moreover, the “Baseline α-Gal A activity” value is 33484 ± 2151 nmol/mg/h and the “10 μM migalastat α-Gal A activity” value came to 44387 ± 2696 nmol/mg/h.

B6: Y184H (protein)
chain: B1 chain with V182D, Y184H
For B6, the “Absolute increase (% WT)” value is 18.4 % WT, the Relative increase turned out to be 1.6, the “10 μM migalastat α-Gal A activity (% WT)” value was determined as 48.6 ± 3.5 % WT and the “Baseline α-Gal A activity (% WT)” value stood at 30.2 ± 2.9 % WT. The “Baseline α-Gal A activity” value was 10980 ± 867 nmol/mg/h and the “10 μM migalastat α-Gal A activity” value was 17894 ± 1145 nmol/mg/h.

B7: K185Q (protein)
chain: B1 chain with V182D, K185Q
B7: the “Absolute increase (% WT)” value came out at 30.9 % WT, the Relative increase is recorded as 1.7, the “10 μM migalastat α-Gal A activity (% WT)” value came out at 74.5 ± 2.9 % WT and the “Baseline α-Gal A activity (% WT)” value is 43.6 ± 2.2 % WT. Besides, the “Baseline α-Gal A activity” value is 14992 ± 947 nmol/mg/h and the “10 μM migalastat α-Gal A activity” value came to 25543 ± 1463 nmol/mg/h.

B8: H186L (protein)
chain: B1 chain with V182D, H186L
B8: the “Absolute increase (% WT)” value came to 27.1 % WT, the Relative increase is reported as 1.3, the “10 μM migalastat α-Gal A activity (% WT)” value is listed as 97.5 ± 8.2 % WT and the “Baseline α-Gal A activity (% WT)” value amounted to 70.4 ± 3.4 % WT. Besides, the “Baseline α-Gal A activity” value stood at 31615 ± 1833 nmol/mg/h and the “10 μM migalastat α-Gal A activity” value came to 42145 ± 2540 nmol/mg/h.

B9: K185N (protein)
chain: B1 chain with V182D, K185N
As for B9, the “Absolute increase (% WT)” value amounted to 22.5 % WT, the Relative increase came to 12.7, the “10 μM migalastat α-Gal A activity (% WT)” value was determined as 24.4 ± 1.9 % WT and the “Baseline α-Gal A activity (% WT)” value is on record as 1.9 ± 0.1 % WT. For the same molecule, the “Baseline α-Gal A activity” value was determined as 833 ± 38 nmol/mg/h and the “10 μM migalastat α-Gal A activity” value turned out to be 10540 ± 618 nmol/mg/h.

B10: M187L (protein)
chain: B1 chain with V182D, M187L
On to B10, for which the “Absolute increase (% WT)” value is reported as 29.2 % WT, the Relative increase came to 6.7, the “10 μM migalastat α-Gal A activity (% WT)” value was found to be 34.5 ± 1.9 % WT and the “Baseline α-Gal A activity (% WT)” value is 5.3 ± 0.2 % WT. Besides, the “Baseline α-Gal A activity” value was 1924 ± 64 nmol/mg/h and the “10 μM migalastat α-Gal A activity” value was found to be 12810 ± 929 nmol/mg/h.

B11: H186D (protein)
chain: B1 chain with V182D, H186D
On to B11, for which the “Absolute increase (% WT)” value is listed as 18.2 % WT, the Relative increase is listed as 1.3, the “10 μM migalastat α-Gal A activity (% WT)” value stood at 78.2 ± 5.2 % WT and the “Baseline α-Gal A activity (% WT)” value worked out at 60 ± 4.1 % WT. Further, the “Baseline α-Gal A activity” value worked out at 26924 ± 2047 nmol/mg/h and the “10 μM migalastat α-Gal A activity” value came out at 34055 ± 1657 nmol/mg/h.

B12: K185T (protein)
chain: B1 chain with V182D, K185T
With B12, the “Absolute increase (% WT)” value was 19.0 % WT, the Relative increase is recorded as 1.2, the “10 μM migalastat α-Gal A activity (% WT)” value is given as 92.6 ± 7.8 % WT and the “Baseline α-Gal A activity (% WT)” value turned out to be 73.6 ± 4.4 % WT. Also, the “Baseline α-Gal A activity” value amounted to 32028 ± 1167 nmol/mg/h and the “10 μM migalastat α-Gal A activity” value was 39805 ± 2259 nmol/mg/h.

B13: H186Q (protein)
chain: B1 chain with V182D, H186Q
With B13, the “Absolute increase (% WT)” value was found to be 28.5 % WT, the Relative increase was 1.4, the “10 μM migalastat α-Gal A activity (% WT)” value came out at 105.3 ± 7 % WT and the “Baseline α-Gal A activity (% WT)” value worked out at 76.9 ± 4.3 % WT. Also, the “Baseline α-Gal A activity” value is 28845 ± 2365 nmol/mg/h and the “10 μM migalastat α-Gal A activity” value turned out to be 38865 ± 2966 nmol/mg/h.

B14: Y184F (protein)
chain: B1 chain with V182D, Y184F
With B14, the “Absolute increase (% WT)” value worked out at 31.8 % WT, the Relative increase is reported as 1.4, the “10 μM migalastat α-Gal A activity (% WT)” value was 109.7 ± 5.8 % WT and the “Baseline α-Gal A activity (% WT)” value is on record as 77.9 ± 4.4 % WT. Besides, the “Baseline α-Gal A activity” value turned out to be 26088 ± 1334 nmol/mg/h and the “10 μM migalastat α-Gal A activity” value was found to be 36815 ± 2009 nmol/mg/h.

B15: H186N (protein)
chain: B1 chain with V182D, H186N
As for B15, the “Absolute increase (% WT)” value is on record as 26.8 % WT, the Relative increase is listed as 1.4, the “10 μM migalastat α-Gal A activity (% WT)” value stood at 90.3 ± 5.8 % WT and the “Baseline α-Gal A activity (% WT)” value was found to be 63.5 ± 3.1 % WT. For the same molecule, the “Baseline α-Gal A activity” value stood at 28175 ± 1462 nmol/mg/h and the “10 μM migalastat α-Gal A activity” value was determined as 39509 ± 1885 nmol/mg/h.

B16: S188F (protein)
chain: B1 chain with V182D, S188F
As to B16, the “Absolute increase (% WT)” value is listed as 36.4 % WT, the Relative increase was found to be 2.8, the “10 μM migalastat α-Gal A activity (% WT)” value is listed as 57.1 ± 2.8 % WT and the “Baseline α-Gal A activity (% WT)” value was 20.7 ± 2 % WT. Moreover, the “Baseline α-Gal A activity” value stood at 7746 ± 839 nmol/mg/h and the “10 μM migalastat α-Gal A activity” value amounted to 21273 ± 1477 nmol/mg/h.

B17: D182Y (protein)
chain: B1 chain with V182Y
Take B17: the “Absolute increase (% WT)” value was 31.9 % WT, the Relative increase amounted to 1.4, the “10 μM migalastat α-Gal A activity (% WT)” value came out at 116.5 ± 6.4 % WT and the “Baseline α-Gal A activity (% WT)” value came out at 84.7 ± 4.1 % WT. Besides, the “Baseline α-Gal A activity” value amounted to 28377 ± 2226 nmol/mg/h and the “10 μM migalastat α-Gal A activity” value turned out to be 39247 ± 3250 nmol/mg/h.

B18: S188A (protein)
chain: B1 chain with V182D, S188A
As to B18, the “Absolute increase (% WT)” value came to 25.7 % WT, the Relative increase is recorded as 1.4, the “10 μM migalastat α-Gal A activity (% WT)” value turned out to be 86.3 ± 4.9 % WT and the “Baseline α-Gal A activity (% WT)” value was 60.6 ± 4 % WT. For the same molecule, the “Baseline α-Gal A activity” value stood at 22589 ± 1833 nmol/mg/h and the “10 μM migalastat α-Gal A activity” value was 32197 ± 2515 nmol/mg/h.
